From ChEMBL document CHEMBL1212811, “Chemical phylogenetics of histone deacetylases” (Nat Chem Biol, 2010)

What was measured:
[1] = substrate: CC(=O)NCCCC[C@H](NC(=O)CNC(=O)[C@H](CC(C)C)NC(C)=O)C(=O)Nc1ccc2c(C)cc(=O)oc2c1; settings: 10 uM
[2] = substrate: CC(=O)NCCCC[C@H](NC(=O)CNC(=O)[C@H](CC(C)C)NC(C)=O)C(=O)Nc1ccc2c(C)cc(=O)oc2c1; settings: 10 uM; remark: listed apart in the source
[3] = substrate: CC(=O)N[C@@H](CC(C)C)C(=O)NCC(=O)N[C@@H](CCCCNC(=O)C(F)(F)F)C(=O)Nc1ccc2c(C)cc(=O)oc2c1; test: Activity of HDAC4 at 10 uM
[4] = substrate: CC(=O)N[C@@H](CC(C)C)C(=O)NCC(=O)N[C@@H](CCCCNC(=O)C(F)(F)F)C(=O)Nc1ccc2c(C)cc(=O)oc2c1; test: Activity of HDAC7 at 10 uM
[5] = substrate: CC(=O)N[C@@H](CC(C)C)C(=O)NCC(=O)N[C@@H](CCCCNC(=O)C(F)(F)F)C(=O)Nc1ccc2c(C)cc(=O)oc2c1; test: Activity of HDAC8 at 10 uM
[6] = substrate: CC(=O)N[C@@H](CC(C)C)C(=O)NCC(=O)N[C@@H](CCCCNC(=O)C(F)(F)F)C(=O)Nc1ccc2c(C)cc(=O)oc2c1; test: Activity of HDAC9 at 10 uM

B1: Histone deacetylase 3 (Homo sapiens), O15379 (protein)
chain: MAKTVAYFYDPDVGNFHYGAGHPMKPHRLALTHSLVLHYGLYKKMIVFKPYQASQHDMCRFHSEDYIDFLQRVSPTNMQGFTKSLNAFNVGDDCPVFPGLFEFCSRYTGASLQGATQLNNKICDIAINWAGGLHHAKKFEASGFCYVNDIVIGILELLKYHPRVLYIDIDIHHGDGVQEAFYLTDRVMTVSFHKYGNYFFPGTGDMYEVGAESGRYYCLNVPLRDGIDDQSYKHLFQPVINQVVDFYQPTCIVLQCGADSLGCDRLGCFNLSIRGHGECVEYVKSFNIPLLVLGGGGYTVRNVARCWTYETSLLVEEAISEELPYSEYFEYFAPDFTLHPDVSTRIENQNSRQYLDQIRQTIFENLKMLNHAPSVQIHDVPADLLTYDRTDEADAEERGPEENYSRPEAPNEFYDGDHDNDKESDVEI
- Km [1]: 6 µM

B2: Protein deacetylase HDAC6 (Homo sapiens), Q9UBN7 (protein)
chain: MTSTGQDSTTTRQRRSRQNPQSPPQDSSVTSKRNIKKGAVPRSIPNLAEVKKKGKMKKLGQAMEEDLIVGLQGMDLNLEAEALAGTGLVLDEQLNEFHCLWDDSFPEGPERLHAIKEQLIQEGLLDRCVSFQARFAEKEELMLVHSLEYIDLMETTQYMNEGELRVLADTYDSVYLHPNSYSCACLASGSVLRLVDAVLGAEIRNGMAIIRPPGHHAQHSLMDGYCMFNHVAVAARYAQQKHRIRRVLIVDWDVHHGQGTQFTFDQDPSVLYFSIHRYEQGRFWPHLKASNWSTTGFGQGQGYTINVPWNQVGMRDADYIAAFLHVLLPVALEFQPQLVLVAAGFDALQGDPKGEMAATPAGFAQLTHLLMGLAGGKLILSLEGGYNLRALAEGVSASLHTLLGDPCPMLESPGAPCRSAQASVSCALEALEPFWEVLVRSTETVERDNMEEDNVEESEEEGPWEPPVLPILTWPVLQSRTGLVYDQNMMNHCNLWDSHHPEVPQRILRIMCRLEELGLAGRCLTLTPRPATEAELLTCHSAEYVGHLRATEKMKTRELHRESSNFDSIYICPSTFACAQLATGAACRLVEAVLSGEVLNGAAVVRPPGHHAEQDAACGFCFFNSVAVAARHAQTISGHALRILIVDWDVHHGNGTQHMFEDDPSVLYVSLHRYDHGTFFPMGDEGASSQIGRAAGTGFTVNVAWNGPRMGDADYLAAWHRLVLPIAYEFNPELVLVSAGFDAARGDPLGGCQVSPEGYAHLTHLLMGLASGRIILILEGGYNLTSISESMAACTRSLLGDPPPLLTLPRPPLSGALASITETIQVHRRYWRSLRVMKVEDREGPSSSKLVTKKAPQPAKPRLAERMTTREKKVLEAGMGKVTSASFGEESTPGQTNSETAVVALTQDQPSEAATGGATLAQTISEAAIGGAMLGQTTSEEAVGGATPDQTTSEETVGGAILDQTTSEDAVGGATLGQTTSEEAVGGATLAQTTSEAAMEGATLDQTTSEEAPGGTELIQTPLASSTDHQTPPTSPVQGTTPQISPSTLIGSLRTLELGSESQGASESQAPGEENLLGEAAGGQDMADSMLMQGSRGLTDQAIFYAVTPLPWCPHLVAVCPIPAAGLDVTQPCGDCGTIQENWVCLSCYQVYCGRYINGHMLQHHGNSGHPLVLSYIDLSAWCYYCQAYVHHQALLDVKNIAHQNKFGEDMPHPH
- Km [2]: 16 µM

B3: Histone deacetylase 4 (Homo sapiens), P56524 (protein)
chain: MSSQSHPDGLSGRDQPVELLNPARVNHMPSTVDVATALPLQVAPSAVPMDLRLDHQFSLPVAEPALREQQLQQELLALKQKQQIQRQILIAEFQRQHEQLSRQHEAQLHEHIKQQQEMLAMKHQQELLEHQRKLERHRQEQELEKQHREQKLQQLKNKEKGKESAVASTEVKMKLQEFVLNKKKALAHRNLNHCISSDPRYWYGKTQHSSLDQSSPPQSGVSTSYNHPVLGMYDAKDDFPLRKTASEPNLKLRSRLKQKVAERRSSPLLRRKDGPVVTALKKRPLDVTDSACSSAPGSGPSSPNNSSGSVSAENGIAPAVPSIPAETSLAHRLVAREGSAAPLPLYTSPSLPNITLGLPATGPSAGTAGQQDAERLTLPALQQRLSLFPGTHLTPYLSTSPLERDGGAAHSPLLQHMVLLEQPPAQAPLVTGLGALPLHAQSLVGADRVSPSIHKLRQHRPLGRTQSAPLPQNAQALQHLVIQQQHQQFLEKHKQQFQQQQLQMNKIIPKPSEPARQPESHPEETEEELREHQALLDEPYLDRLPGQKEAHAQAGVQVKQEPIESDEEEAEPPREVEPGQRQPSEQELLFRQQALLLEQQRIHQLRNYQASMEAAGIPVSFGGHRPLSRAQSSPASATFPVSVQEPPTKPRFTTGLVYDTLMLKHQCTCGSSSSHPEHAGRIQSIWSRLQETGLRGKCECIRGRKATLEELQTVHSEAHTLLYGTNPLNRQKLDSKKLLGSLASVFVRLPCGGVGVDSDTIWNEVHSAGAARLAVGCVVELVFKVATGELKNGFAVVRPPGHHAEESTPMGFCYFNSVAVAAKLLQQRLSVSKILIVDWDVHHGNGTQQAFYSDPSVLYMSLHRYDDGNFFPGSGAPDEVGTGPGVGFNVNMAFTGGLDPPMGDAEYLAAFRTVVMPIASEFAPDVVLVSSGFDAVEGHPTPLGGYNLSARCFGYLTKQLMGLAGGRIVLALEGGHDLTAICDASEACVSALLGNELDPLPEKVLQQRPNANAVRSMEKVMEIHSKYWRCLQRTTSTAGRSLIEAQTCENEEAETVTAMASLSVGVKPAEKRPDEEPMEEEPPL
- Km [3]: 10.3 µM

B4: Histone deacetylase 7 (Homo sapiens), Q8WUI4 (protein)
chain: MDLRVGQRPPVEPPPEPTLLALQRPQRLHHHLFLAGLQQQRSVEPMRLSMDTPMPELQVGPQEQELRQLLHKDKSKRSAVASSVVKQKLAEVILKKQQAALERTVHPNSPGIPYRTLEPLETEGATRSMLSSFLPPVPSLPSDPPEHFPLRKTVSEPNLKLRYKPKKSLERRKNPLLRKESAPPSLRRRPAETLGDSSPSSSSTPASGCSSPNDSEHGPNPILGSEALLGQRLRLQETSVAPFALPTVSLLPAITLGLPAPARADSDRRTHPTLGPRGPILGSPHTPLFLPHGLEPEAGGTLPSRLQPILLLDPSGSHAPLLTVPGLGPLPFHFAQSLMTTERLSGSGLHWPLSRTRSEPLPPSATAPPPPGPMQPRLEQLKTHVQVIKRSAKPSEKPRLRQIPSAEDLETDGGGPGQVVDDGLEHRELGHGQPEARGPAPLQQHPQVLLWEQQRLAGRLPRGSTGDTVLLPLAQGGHRPLSRAQSSPAAPASLSAPEPASQARVLSSSETPARTLPFTTGLIYDSVMLKHQCSCGDNSRHPEHAGRIQSIWSRLQERGLRSQCECLRGRKASLEELQSVHSERHVLLYGTNPLSRLKLDNGKLAGLLAQRMFVMLPCGGVGVDTDTIWNELHSSNAARWAAGSVTDLAFKVASRELKNGFAVVRPPGHHADHSTAMGFCFFNSVAIACRQLQQQSKASKILIVDWDVHHGNGTQQTFYQDPSVLYISLHRHDDGNFFPGSGAVDEVGAGSGEGFNVNVAWAGGLDPPMGDPEYLAAFRIVVMPIAREFSPDLVLVSAGFDAAEGHPAPLGGYHVSAKCFGYMTQQLMNLAGGAVVLALEGGHDLTAICDASEACVAALLGNRVDPLSEEGWKQKPNLNAIRSLEAVIRVHSKYWGCMQRLASCPDSWVPRVPGADKEEVEAVTALASLSVGILAEDRPSEQLVEEEEPMNL
- Km [4]: 19.8 µM

B5: Histone deacetylase 8 (Homo sapiens), Q9BY41 (protein)
chain: MEEPEEPADSGQSLVPVYIYSPEYVSMCDSLAKIPKRASMVHSLIEAYALHKQMRIVKPKVASMEEMATFHTDAYLQHLQKVSQEGDDDHPDSIEYGLGYDCPATEGIFDYAAAIGGATITAAQCLIDGMCKVAINWSGGWHHAKKDEASGFCYLNDAVLGILRLRRKFERILYVDLDLHHGDGVEDAFSFTSKVMTVSLHKFSPGFFPGTGDVSDVGLGKGRYYSVNVPIQDGIQDEKYYQICESVLKEVYQAFNPKAVVLQLGADTIAGDPMCSFNMTPVGIGKCLKYILQWQLATLILGGGGYNLANTARCWTYLTGVILGKTLSSEIPDHEFFTAYGPDYVLEITPSCRPDRNEPHRIQQILNYIKGNLKHVV
- Km [5]: 190 µM

B6: Histone deacetylase 9 (Homo sapiens), Q9UKV0 (protein)
chain: MHSMISSVDVKSEVPVGLEPISPLDLRTDLRMMMPVVDPVVREKQLQQELLLIQQQQQIQKQLLIAEFQKQHENLTRQHQAQLQEHIKELLAIKQQQELLEKEQKLEQQRQEQEVERHRREQQLPPLRGKDRGRERAVASTEVKQKLQEFLLSKSATKDTPTNGKNHSVSRHPKLWYTAAHHTSLDQSSPPLSGTSPSYKYTLPGAQDAKDDFPLRKTASEPNLKVRSRLKQKVAERRSSPLLRRKDGNVVTSFKKRMFEVTESSVSSSSPGSGPSSPNNGPTGSVTENETSVLPPTPHAEQMVSQQRILIHEDSMNLLSLYTSPSLPNITLGLPAVPSQLNASNSLKEKQKCETQTLRQGVPLPGQYGGSIPASSSHPHVTLEGKPPNSSHQALLQHLLLKEQMRQQKLLVAGGVPLHPQSPLATKERISPGIRGTHKLPRHRPLNRTQSAPLPQSTLAQLVIQQQHQQFLEKQKQYQQQIHMNKLLSKSIEQLKQPGSHLEEAEEELQGDQAMQEDRAPSSGNSTRSDSSACVDDTLGQVGAVKVKEEPVDSDEDAQIQEMESGEQAAFMQQPFLEPTHTRALSVRQAPLAAVGMDGLEKHRLVSRTHSSPAASVLPHPAMDRPLQPGSATGIAYDPLMLKHQCVCGNSTTHPEHAGRIQSIWSRLQETGLLNKCERIQGRKASLEEIQLVHSEHHSLLYGTNPLDGQKLDPRILLGDDSQKFFSSLPCGGLGVDSDTIWNELHSSGAARMAVGCVIELASKVASGELKNGFAVVRPPGHHAEESTAMGFCFFNSVAITAKYLRDQLNISKILIVDLDVHHGNGTQQAFYADPSILYISLHRYDEGNFFPGSGAPNEVGTGLGEGYNINIAWTGGLDPPMGDVEYLEAFRTIVKPVAKEFDPDMVLVSAGFDALEGHTPPLGGYKVTAKCFGHLTKQLMTLADGRVVLALEGGHDLTAICDASEACVNALLGNELEPLAEDILHQSPNMNAVISLQKIIEIQSMSLKFS
- Km [6]: 37 µM
